In US20250223342A1 (ARGENX, published 2025):

What was measured:
[1] = target: T1, cynomolgus monkey serum albumin (cynomolgus monkey, UniProt A2V9Z4 25-608); assay: species reactivity, screening by ELISA and Biacore
T1 construct: also called cyno albumin; CSA

human serum albumin [2] = target: T2, human serum albumin (human, UniProt P02768 25-609); assay: SPR (Biacore), VHH clone, pH 7.4
T2 construct: also called HSA

human serum albumin [3] = target: T2, human serum albumin; assay: SPR (Biacore), VHH clone, pH 5.5
human serum albumin [4] = target: T2, human serum albumin; assay: SPR (Biacore), off-rate pH 7.4 over pH 5.5
[5] = target: T3, isolated DII of serum albumin (UniProt P02768 211-403, limits assumed); assay: DII binder column of the clone screening
T3 construct: domain: DII

[6] = target: T1, cynomolgus monkey serum albumin; assay: SPR (Biacore 3000), albumin on chip, Fc-ABDEG fusion
[7] = target: T1, cynomolgus monkey serum albumin; assay: SPR (Biacore 3000), cyno albumin on chip, Fc-ABDEG fusion, pH 7.4
[8] = target: T1, cynomolgus monkey serum albumin; assay: SPR (Biacore 3000), cyno albumin on chip, Fc-ABDEG fusion, pH 5.5
human serum albumin [9] = target: T2, human serum albumin; assay: SPR (Biacore 3000), HSA on chip, Fc-ABDEG fusion, pH 5.5
human serum albumin [10] = target: T2, human serum albumin; assay: SPR (Biacore 3000), HSA on chip, Fc-ABDEG fusion, ratio of R0
human serum albumin [11] = target: T2, human serum albumin; assay: SPR (Biacore 3000), HSA on chip, Fc-ABDEG fusion, pH 7.4
[12] = target: T1, cynomolgus monkey serum albumin; assay: SPR (Biacore 3000), cyno albumin on chip, Fc-ABDEG fusion, ratio of R0

Binder | R0 pH 7.4 [7] [RU] | R0 pH 5.5 [8] [RU] | R0 pH 5.5 (human serum albumin [9]) [RU] | R0 5.5/7.4 (human serum albumin [10]) | R0 pH 7.4 (human serum albumin [11]) [RU] | further results
4G12 (VHH) VHH: QLQLVESGGGLVQAGGSLRLSCVASGRSFSTYGMGWFRQAPGAEREFAAAINWKGDRYYADSVKGRFTISRDNAKNTVFLEMNSLKPEDTGVYYCAADSDGSAFSRRLEYDYWGQGTQVTVSS | – | – | – | – | – | binding result [1]: binds; koff (human serum albumin [2]): 0.0033 s⁻¹; Kd (human serum albumin [3]): 12.4 nM; koff (human serum albumin [3]): 0.0019 s⁻¹; Ratio Kd (human serum albumin [4]): 1.8; binding result [5]: no binding
2C10 (VHH) VHH: QLQLVESGGGLVQAGGSLRLSCAASGRTFSSYAMGWFRQAPGKEREFVAVISWSGGSTYYADSVKGRFTISGDNAKNTVYLQMNSLKPEDTAVYYCATEGPKWEPYNGIYSPADFGSWGQGTQVTVSS | – | – | – | – | – | koff (human serum albumin [2]): 0.0056 s⁻¹; Kd (human serum albumin [3]): 49.3 nM; koff (human serum albumin [3]): 0.0045 s⁻¹; Ratio Kd (human serum albumin [4]): 1.3; binding result [5]: no binding
2H11-v8 fused at the C-terminus of Fc-ABDEG (two-armed Fc-ABDEG-20GS-Cterm fusion) (Fc fusion, not shown: a dimerising Fc or GST; small tags and cut ends) VHH: ELQVVESGGGLVQAGGSLRLSCAASGRTFRSNTMGWFRQAPGKEREFVAAITWSGGTTYYADSVKGRFAISGDNAKNTVYLQMNSLKPEDTAVYYCAAEGPKWEPANGIYHPADFGSWGQGTQVTVSS | – | – | – | – | – | binding result [6]: no binding
2H11-v3 fused at the C-terminus of Fc-ABDEG (two-armed Fc-ABDEG-20GS-Cterm fusion) (Fc fusion, not shown: a dimerising Fc or GST; large carriers; small tags and cut ends) VHH: ELQVVESGGGLVQAGGSLRLSCAASGRTFRSNTMGWFRQAPGKEREFVAAITWSGGTTYYADSVKGRFAISGDNAKNTVYLQMNSLKPEDTAVYYCAAEGAKWEPWNGIYHPADFGSWGQGTQVTVSS | – | – | – | – | – | binding result [6]: no binding
2H11-v12 fused at the C-terminus of Fc-ABDEG (two-armed Fc-ABDEG-20GS-Cterm fusion) (Fc fusion, not shown: a dimerising Fc or GST; large carriers; small tags and cut ends) VHH: ELQVVESGGGLVQAGGSLRLSCAASGRTFRSNTMGWFRQAPGKEREFVAAITWSGGTTYYADSVKGRFAISGDNAKNTVYLQMNSLKPEDTAVYYCAAEGPKWEPWNGIAHPADFGSWGQGTQVTVSS | – | – | – | – | – | binding result [6]: no binding
2H11-v16 fused at the C-terminus of Fc-ABDEG (two-armed Fc-ABDEG-20GS-Cterm fusion) (Fc fusion, not shown: a dimerising Fc or GST; large carriers; small tags and cut ends) VHH: ELQVVESGGGLVQAGGSLRLSCAASGRTFRSNTMGWFRQAPGKEREFVAAITWSGGTTYYADSVKGRFAISGDNAKNTVYLQMNSLKPEDTAVYYCAAEGPKWEPWNGIYHPADAGSWGQGTQVTVSS | – | – | – | – | – | binding result [6]: no binding
2H11-v15 fused at the C-terminus of Fc-ABDEG (two-armed Fc-ABDEG-20GS-Cterm fusion) (Fc fusion, not shown: a dimerising Fc or GST; large carriers; small tags and cut ends) VHH: ELQVVESGGGLVQAGGSLRLSCAASGRTFRSNTMGWFRQAPGKEREFVAAITWSGGTTYYADSVKGRFAISGDNAKNTVYLQMNSLKPEDTAVYYCAAEGPKWEPWNGIYHPAAFGSWGQGTQVTVSS | – | – | – | – | – | binding result [6]: no binding
2H11-v9 fused at the C-terminus of Fc-ABDEG (two-armed Fc-ABDEG-20GS-Cterm fusion) (Fc fusion, not shown: a dimerising Fc or GST; large carriers; small tags and cut ends) VHH: ELQVVESGGGLVQAGGSLRLSCAASGRTFRSNTMGWFRQAPGKEREFVAAITWSGGTTYYADSVKGRFAISGDNAKNTVYLQMNSLKPEDTAVYYCAAEGPKWEPWAGIYHPADFGSWGQGTQVTVSS | – | – | – | – | – | binding result [6]: no binding
2A10 (VHH) VHH: EVQLVESGGGLVQAGGSLRLSCAASGRTFSSYAMGWFRQAPGKEREFVATINWSGGSTYYADSVKGRFTISRDNAKNTVYLQMNSLKPEDTAVYYCAADLYGPGFVLSMEYDYWGQGTQVTVSS | – | – | – | – | – | binding result [1]: binds; koff (human serum albumin [2]): 0.011 s⁻¹; Kd (human serum albumin [3]): 96.9 nM; koff (human serum albumin [3]): 0.0034 s⁻¹; Ratio Kd (human serum albumin [4]): 3.3; binding result [5]: no binding
2H11 (VHH, also called 2H11 parental (VHH)) VHH: ELQVVESGGGLVQAGGSLRLSCAASGRTFRSNTMGWFRQAPGKEREFVAAITWSGGTTYYADSVKGRFAISGDNAKNTVYLQMNSLKPEDTAVYYCAAEGPKWEPWNGIYHPADFGSWGQGTQVTVSS | – | – | – | – | – | koff (human serum albumin [2]): 0.052 s⁻¹; Kd (human serum albumin [3]): 6.84 nM; koff (human serum albumin [3]): 0.00063 s⁻¹; Ratio Kd (human serum albumin [4]): 81.9
2B03 (VHH) VHH: QLQLVESGGGLVQAGGSLRLSCAASGRAISSYVMAWFRQAPGKEREFVTSINWSGGSTYYAHSVKGRFTISRDNAKNTVYLQMNTLKPEDTAVYYCAADLYGLGYEVMSYDYWGQGTQVTVSS | – | – | – | – | – | binding result [1]: binds; koff (human serum albumin [2]): 0.025 s⁻¹; Kd (human serum albumin [3]): 16.6 nM; koff (human serum albumin [3]): 0.0029 s⁻¹; Ratio Kd (human serum albumin [4]): 8.7; binding result [5]: no binding
1E04 (VHH) VHH: QLQLVESGGGLVQTGGSLRLSCAASGRTFSNYNAGWFRQVPGKEPEFVAAINWSGGTTYYADSVKGRFTISRDNAKNTVYLQMNSLKPEDTAVYYCAADPDWSILNPREYDYWGQGTRVTVSS | – | – | – | – | – | binding result [1]: binds; koff (human serum albumin [2]): 0.0054 s⁻¹; Kd (human serum albumin [3]): 55.2 nM; koff (human serum albumin [3]): 0.0026 s⁻¹; Ratio Kd (human serum albumin [4]): 2.1; binding result [5]: no binding
11C03 CDR1-V2 fused at the C-terminus of Fc-ABDEG (Fc fusion, not shown: a dimerising Fc or GST; small tags and cut ends) QLQVVESGGGLVQAGGSLRLSCAASERTFVAAPMGWFRQAPEKEREFVAGISWFAGATTDYADSVEGRFTISRDNAKNTAYLQMNNLKPEDTAVYYCAISHQLPGGRPGRDMDSYSYWGHGTQVTVSS | 2.11 | 37.8 | 108 | 19 | 5.82 | R0 5.5/7.4 [12]: 17.9
11C03 CDR2-V4 fused at the C-terminus of Fc-ABDEG (Fc fusion, not shown: a dimerising Fc or GST; small tags and cut ends) QLQVVESGGGLVQAGGSLRLSCAASERTFVAYPMGWFRQAPEKEREFVAGISAFAGATTDYADSVEGRFTISRDNAKNTAYLQMNNLKPEDTAVYYCAISHQLPGGRPGRDMDSYSYWGHGTQVTVSS | 2.77 | 0 | 12.3 | 15 | 0.826 | –
11C03 CDR2-V3 fused at the C-terminus of Fc-ABDEG (Fc fusion, not shown: a dimerising Fc or GST; small tags and cut ends) QLQVVESGGGLVQAGGSLRLSCAASERTFVAYPMGWFRQAPEKEREFVAGIAWFAGATTDYADSVEGRFTISRDNAKNTAYLQMNNLKPEDTAVYYCAISHQLPGGRPGRDMDSYSYWGHGTQVTVSS | 2.6 | 54.2 | 68.5 | 28 | 2.4 | R0 5.5/7.4 [12]: 20.8
11C03 CDR2-V7 fused at the C-terminus of Fc-ABDEG (Fc fusion, not shown: a dimerising Fc or GST; small tags and cut ends) QLQVVESGGGLVQAGGSLRLSCAASERTFVAYPMGWFRQAPEKEREFVAGISWFAAATTDYADSVEGRFTISRDNAKNTAYLQMNNLKPEDTAVYYCAISHQLPGGRPGRDMDSYSYWGHGTQVTVSS | 1.09 | 0 | 4.57 | 4 | 1.12 | –
11C03 CDR2-V10 fused at the C-terminus of Fc-ABDEG (Fc fusion, not shown: a dimerising Fc or GST; small tags and cut ends) QLQVVESGGGLVQAGGSLRLSCAASERTFVAYPMGWFRQAPEKEREFVAGISWFAGATADYADSVEGRFTISRDNAKNTAYLQMNNLKPEDTAVYYCAISHQLPGGRPGRDMDSYSYWGHGTQVTVSS | 5.65 | 105 | 136 | 16 | 8.6 | R0 5.5/7.4 [12]: 18.6
11C03 CDR2-V5 fused at the C-terminus of Fc-ABDEG (Fc fusion, not shown: a dimerising Fc or GST; small tags and cut ends) QLQVVESGGGLVQAGGSLRLSCAASERTFVAYPMGWFRQAPEKEREFVAGISWAAGATTDYADSVEGRFTISRDNAKNTAYLQMNNLKPEDTAVYYCAISHQLPGGRPGRDMDSYSYWGHGTQVTVSS | 1.1 | 0 | 12.3 | 12 | 1.06 | –
11C03 CDR1-V3 fused at the C-terminus of Fc-ABDEG (Fc fusion, not shown: a dimerising Fc or GST; small tags and cut ends) QLQVVESGGGLVQAGGSLRLSCAASERTFVAYAMGWFRQAPEKEREFVAGISWFAGATTDYADSVEGRFTISRDNAKNTAYLQMNNLKPEDTAVYYCAISHQLPGGRPGRDMDSYSYWGHGTQVTVSS | 5.2 | 103 | 109 | 21 | 5.1 | R0 5.5/7.4 [12]: 19.8
11C03 CDR2-V12 fused at the C-terminus of Fc-ABDEG (Fc fusion, not shown: a dimerising Fc or GST; small tags and cut ends) QLQVVESGGGLVQAGGSLRLSCAASERTFVAYPMGWFRQAPEKEREFVAGISWFAGATTDAADSVEGRFTISRDNAKNTAYLQMNNLKPEDTAVYYCAISHQLPGGRPGRDMDSYSYWGHGTQVTVSS | 1.35 | 26 | 38.7 | 26 | 1.5 | R0 5.5/7.4 [12]: 19.3
11C03 CDR2-V2 fused at the C-terminus of Fc-ABDEG (Fc fusion, not shown: a dimerising Fc or GST; small tags and cut ends) QLQVVESGGGLVQAGGSLRLSCAASERTFVAYPMGWFRQAPEKEREFVAGASWFAGATTDYADSVEGRFTISRDNAKNTAYLQMNNLKPEDTAVYYCAISHQLPGGRPGRDMDSYSYWGHGTQVTVSS | 1.2 | 5.22 | 15.1 | 12 | 1.22 | R0 5.5/7.4 [12]: 4.35
